Where “and” joins values, the source holds several entries; their conditions need not be identical. Equal entries are not always repeated.
Columns and labels:
[1] = Thermally-induced reversible phase transition (turbidity OD350 vs temperature); format: physicochemical; conditions: for Tt (cooling) / Tt (heating): 25 μM in H2O
Description: Characterization of thermally-induced, reversible, inverse phase transition of iTEPs and the iTEPB-iTEPA-pOVA fusion. The phase transitions of iTEP or iTEP fusions were characterized by turbidity changes of sample solutions as a function of temperature. Specifically, the optical density at 350 nm (OD350) of a sample solution was monitored using an UV-visible spectrophotometer equipped with a multi-cell thermoelectric temperature controller (Cary 300, Varian Instruments, Walnut Creek, CA) while the solution was heated from 20° C. to 80° C. and then cooled to 20° C. at a rate of 1° C./min. The maximum first derivative of the turbidity curve of a sample was identified. The transition temperature (Tt) of the sample is the temperature that corresponds to the maximum derivative.

[2] = Hydrodynamic diameter by dynamic light scattering (DLS); format: physicochemical
Procedure: Characterization of the size of iTEPB-pOVA and iTEPB-iTEPA-pOVA fusions. The particle size distribution of the iTEP fusions was determined by dynamic light scattering (DLS) using a Zetasizer Nano-ZS instrument (Malvern Instruments, Malvern, UK) as previously described.^(29) The fusions were prepared at 5 μM and 25 μM in PBS and equilibrated at 37° C. for the measurement. The reported results represented the average particle size by number.
Dynamic light scattering (DLS) measurement. The measurement was carried out as previously described. iTEP, iTEP-MPBH-ABA-Sali conjugate, or PTX NP were measured at 25 μM in PBS at 37° C. using a Malvern Zetasizer Nano system (Malvern, Chester County, PA, USA).
Characterization of hydrodynamic diameters of iTEP-vaccine fusions. Hydrodynamic diameters of iTEP-vaccine fusions were determined by dynamic light scattering (DLS) using a Zetasizer Nano-ZS instrument (Malvern Instruments, Malvern, UK) as previously described (Zhao et al., Mol Pharm, 2014; 11(8):2703-12). The samples were resuspended at concentrations of 5, 25, 50, and 100 μM in PBS and sat at room temperature overnight before measurement. Some samples were kept in 5% C02 at 37° C. for 16 h before DLS measurement. Hydrodynamic diameter results of the sample of 5 μM concentration were reported because they were not affected by the used sample concentrations. Hydrodynamic diameters were presented using the size-by-number distribution approach. Z-average values and sizes-by-intensity data, however, were also reported.

Molecule | Relative Hydrophobicity [1] | Tt (cooling) [1] | Tt (heating) [1] | further results
G(VPGLGAGAG)96GG [iTEPD] | High | 35.20 ± 0.57 °C | 38.6 °C and 38.60 ± 1.20 °C | (heating) Tt ([1]; 5 μM): 42.3 °C
G(GVLPGVG)28GG (protein) GGAGVPGGAGVPGGAGVPGGAGVPGGAGVPGGAGVPGGAGVPGGAGVPGGAGVPGGAGVPGGAGVPGGAGVPGGAGVPGGAGVPGGAGVPGGAGVPGGAGVPGGAGVPGGAGVPGGAGVPGGAGVPGGAGVPGGAGVPGGAGVPGGAGVPGGAGVPGGAGVPGGAGVPGGAGVPGGAGVPGGAGVPGGAGVPGGAGVPGGAGVPGGAGVPGGAGVPGGAGVPGGAGVPGGAGVPGGAGVPGGAGVPGGAGVPGGAGVPGGAGVPGGAGVPGGAGVPGGAGVPGGAGVPGGAGVPGGAGVPGGAGVPGGAGVPGGAGVPGGAGVPGGAGVPGGAGVPGGAGVPGGAGVPGGAGVPGGAGVPGGAGVPGGAGVPGGAGVPGGAGVPGGAGVPGGAGVPGGAGVPGGAGVPGGAGVPGGAGVPGGG | High | 29.70 ± 0.05 °C | 33.30 ± 0.09 °C | 
NH2-(GAGVPG)70-(…)8-COOH (protein) GGAGVPGGAGVPGGAGVPGGAGVPGGAGVPGGAGVPGGAGVPGGAGVPGGAGVPGGAGVPGGAGVPGGAGVPGGAGVPGGAGVPGGAGVPGGAGVPGGAGVPGGAGVPGGAGVPGGAGVPGGAGVPGGAGVPGGAGVPGGAGVPGGAGVPGGAGVPGGAGVPGGAGVPGGAGVPGGAGVPGGAGVPGGAGVPGGAGVPGGAGVPGGAGVPGGAGVPGGAGVPGGAGVPGGAGVPGGAGVPGGAGVPGGAGVPGGAGVPGGAGVPGGAGVPGGAGVPGGAGVPGGAGVPGGAGVPGGAGVPGGAGVPGGAGVPGGAGVPGGAGVPGGAGVPGGAGVPGGAGVPGGAGVPGGAGVPGGAGVPGGAGVPGGAGVPGGAGVPGGAGVPGGAGVPGGAGVPGGAGVPGGAGVPGGAGVPGGAGVPGGGVLPGVGGVLPGVGGVLPGVGGVLPGVGGVLPGVGGVLPGVGGVLPGVGGVLPGVGGVLPGVGGVLPGVGGVLPGVGGVLPGVGGVLPGVGGVLPGVGGVLPGVGGVLPGVGGVLPGVGGVLPGVGGVLPGVGGVLPGVGGVLPGVGGVLPGVGGVLPGVGGVLPGVGGVLPGVGGVLPGVGGVLPGVGGVLPGVGGVLPGVGGVLPGVGGVLPGVGGVLPGVGGVLPGVGGVLPGVGGVLPGVGGVLPGVGGVLPGVGGVLPGVGGVLPGVGGVLPGVGGVLPGVGGVLPGVGGVLPGVGGVLPGVGGVLPGVGGVLPGVGGVLPGVGGVLPGVGGVLPGVGGVLPGVGGVLPGVGGVLPGVGGVLPGVGGVLPGVGGVLPGVGGVLPGVGG |  |  |  | hydrodynamic diameter (DLS) ([2]; 25 μM in PBS at 37° C.): 6.63±1.25 nm
G(GAGVPG)70GG (protein) GVPGFGAGAGVPGFGAGAGVPGFGAGAGVPGFGAGAGVPGFGAGAGVPGFGAGAGVPGFGAGAGVPGFGAGAGVPGFGAGAGVPGFGAGAGVPGFGAGAGVPGFGAGAGVPGFGAGAGVPGFGAGAGVPGFGAGAGVPGFGAGAGVPGFGAGAGVPGFGAGAGVPGFGAGAGVPGFGAGAGVPGFGAGAGGG | Low |  |  | temperature of coacervate formation ([1]; in H2O, tested temperature range 20-80° C.): did not form coacervates
iTEPB-pOVA: a fusion of the hydrophilic iTEPB and the vaccine, soluble (SEQ ID NO: 57) (protein) GAGVPGGAGVPGGAGVPGGAGVPGGAGVPGGAGVPGGAGVPGGAGVPGGAGVPGGAGVPGGAGVPGGAGVPGGAGVPGGAGVPGGAGVPGGAGVPGGAGVPGGAGVPGGAGVPGGAGVPGGAGVPGGAGVPGGAGVPGGAGVPGGAGVPGGAGVPGGAGVPGGAGVPGGAGVPGGAGVPGGAGVPGGAGVPGGAGVPGGAGVPGGAGVPGGAGVPGGAGVPGGAGVPGGAGVPGGAGVPGGAGVPGGAGVPGGAGVPGGAGVPGGAGVPGGAGVPGGAGVPGGAGVPGGAGVPGGAGVPGGAGVPGGAGVPGGAGVPGGAGVPGGAGVPGGAGVPGGAGVPGGAGVPGGAGVPGGAGVPGGAGVPGGAGVPGGAGVPGGAGVPGGAGVPGGAGVPGGAGVPGGAGVPGGAGVPGGAGVPGCGGGGGGGGCGGGGGGGGCGGGGGGGGCGGGGGGGGCGGGGGGGGCGGGGGGGGCGGGGGGGGCGGGGGGGG |  |  |  | mean diameter / size (DLS) ([2]; 25 μM in PBS, 37° C., by number): less than 10 nm
